± gives the standard error.
B1: library; numbered along this chain (parent)
chain: MATDAALRRLLRLHRTEIAVAVDSAFPLLHALADHDVVPEDKFQETLHLKEKEGCPQAFHALLSWLLTQDSTAILDFWRVLFKDYNLERYGRLQPILDSFPKDVDLSQPRKGRKPPAVPKALVPPPRLPTKRKASEEARAAAPAALTPRGTASPGSQLKAKPPKKPESSAEQQRLPLGNGIQTMSASVQRAVAMSSGDVPGARGAVEGILIQQVFESGGSKKCIQVGGEFYTPSKFEDSGSGKNKARSSSGPKPLVRAKGAQGAAPGGGEARLGQQGSVPAPLALPSDPQLHQKNEDECAVCRDGGELICCDGCPRAFHLACLSPPLREIPSGTWRCSSCLQATVQEVQPRAEEPRPQEPPVETPLPPGLRSAGEEVRGPPGEPLAGMDTTLVYKHLPAPPSAAPLPGLDSSALHPLLCVGPEGQQNLAPGARCGVCGDGTDVLRCTHCAAAFHWRCHFPAGTSRPGTGLRCRSCSGDVTPAPVEGVLAPSPARLAPGPAKDDTASHEPALHRDDLESLLSEHTFDGILQWAIQSMARPAAPFPS

Variants of: B1
Assay: AIRE transcriptional activation functional score (insulin promoter-GFP; nonsense median 0, synonymous median 1) (normalised score); higher = higher AIRE activity (more reporter activation)
Settings: with insulin promoter-GFP reporter in HEK293
Protocol: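 Deep mutational scan of full-length human AIRE (codon-optimized cDNA, DT-POPCode NNN libraries over three regions) integrated at a Bxb1 landing pad in HEK293 cells carrying an insulin core promoter-GFP reporter at a Flp-In site. Cells were sorted for the top 10% GFP about 14 days after transfection. Variant frequency log-ratios (select vs non-select, TileSeq) were rescaled so that the nonsense median is 0 and the synonymous median is 1, then averaged over biological replicates.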

AIRE transcriptional activation functional score, by site and new letter:
V279: C 1.36 ± 0.22 | T 0.815 ± 0.12 | M 1.34 ± 0.095 | E 1.08 ± 0.12 | R 1.04 ± 0.18 | P 1.06 ± 0.19 | A 1.45 ± 0.19 | I 0.721 ± 0.43 | G 1.08 ± 0.14 | L 1 ± 0.24 | W 1.4 ± 0.13 | S 1.24 ± 0.4 | K 0.637 ± 0.24 | N 0.603 ± 0.33 | F 1.69 ± 0.43 | Y 1.26 ± 0.048 | H 1.06 ± 0.055 | D -0.0439 ± 0.22 | Q -0.249 ± 0.29
E270: H 1.56 ± 0.082 | D 1.37 ± 0.18 | L 1.41 ± 0.26 | C 1.08 ± 0.53 | I 0.55 ± 0.37 | A 0.795 ± 0.25 | N 1.01 ± 0.45 | Q 1.15 ± 0.33 | T 0.69 ± 0.38 | K 0.735 ± 0.032 | R 0.723 ± 0.14 | P 1.64 ± 0.2 | M 1.2 ± 0.07 | Y 1.38 ± 0.056 | W 1.36 ± 0.024 | F 0.977 ± 0.13 | V 1.36 ± 0.34 | S 0.795 ± 0.13 | G 1.11 ± 0.2
L273: I 1.07 ± 0.28 | D 0.505 ± 0.15 | V 1.02 ± 0.25 | H 0.264 ± 0.23 | F 0.977 ± 0.078 | E 0.817 ± 0.051 | R 0.646 ± 0.2 | C 0.741 ± 0.15 | G 0.95 ± 0.18 | M 1.19 ± 0.068 | P 1.11 ± 0.34 | W 1.37 ± 0.051 | K 0.434 ± 0.14 | Q 1.72 ± 0.43 | N 0.862 ± 0.052 | Y 1.28 ± 0.28 | T 0.77 ± 0.41 | A 0.967 ± 0.28 | S 0.975 ± 0.53
G269: P 1.44 ± 0.093 | N 0.306 ± 0.089 | L 1.36 ± 0.38 | W 1.81 ± 0.065 | S 1.2 ± 0.23 | R 1.13 ± 0.27 | M 0.571 ± 0.041 | V 1.05 ± 0.17 | Y 0.676 ± 0.18 | Q 0.849 ± 0.18 | T 1.51 ± 0.13
L285: S 0.921 ± 0.25 | V 0.989 ± 0.16 | T 0.845 ± 0.47 | P 1.17 ± 0.45 | F 0.835 ± 0.33 | N 0.918 ± 0.047 | K 0.713 ± 0.23 | C 0.894 ± 0.2 | H 0.689 ± 0.094 | A 1.37 ± 0.61 | I 1.02 ± 0.082 | Q 1.22 ± 0.074 | R 1.02 ± 0.33 | G 0.429 ± 0.3 | D 1.56 ± 0.21 | Y 0.979 ± 0.08
A284: M 0.962 ± 0.03 | G 1.03 ± 0.21 | V 1.06 ± 0.16 | E 0.63 ± 0.16 | I 1.23 ± 0.24 | D 1.06 ± 0.14 | T 0.876 ± 0.2 | W 1.16 ± 0.027 | L 1.02 ± 0.29 | N 0.828 ± 0.039 | R 1.12 ± 0.15 | F 1.2 ± 0.18 | S 1.1 ± 0.28 | Y 1.32 ± 0.18 | Q 1.39 ± 0.3 | P 0.905 ± 0.28 | C 0.943 ± 0.11 | K 0.964 ± 0.18 | H 0.932 ± 0.3
Q275: T 1.11 ± 0.33 | Y 1.35 ± 0.22 | P 1.19 ± 0.28 | E 1.26 ± 0.19 | S 0.826 ± 0.52 | R 1.03 ± 0.15 | H 1.01 ± 0.13 | G 0.894 ± 0.33 | W 1.74 ± 0.026 | K 1.06 ± 0.11 | C 1.08 ± 0.075 | L 1.03 ± 0.14 | A 0.853 ± 0.14 | I 1.12 ± 0.15 | V 1.01 ± 0.2 | M 1.04 ± 0.033 | F 1.11 ± 0.12 | N 1.01 ± 0.25 | D 1.33 ± 0.19
L283: F 1.17 ± 0.21 | T 1.02 ± 0.36 | W 1.14 ± 0.032 | N 0.486 ± 0.18 | Y 1.19 ± 0.19 | H 1.15 ± 0.15 | Q 0.784 ± 0.11 | K 1.19 ± 0.23 | I 0.854 ± 0.18 | R 1 ± 0.23 | C 0.771 ± 0.21 | M 1.34 ± 0.034 | P 0.953 ± 0.21 | E 0.987 ± 0.2 | A 1.02 ± 0.32 | D 1.01 ± 0.17 | G 0.798 ± 0.17 | V 1.12 ± 0.096 | S 1.01 ± 0.19
Q276: A 1.12 ± 0.1 | M 1 ± 0.08 | D 1.11 ± 0.42 | C 1.26 ± 0.039 | Y 1.26 ± 0.065 | F 1.05 ± 0.044 | N 1.52 ± 0.29 | G 1.39 ± 0.29 | W 0.869 ± 0.12 | R 0.822 ± 0.37 | K 0.954 ± 0.22 | S 0.925 ± 0.17 | L 0.779 ± 0.25 | T 1.14 ± 0.16 | V 0.873 ± 0.11 | E 0.831 ± 0.28 | H 1.26 ± 0.15 | I 1.83 ± 0.08 | P 1.05 ± 0.092
P282: C 2.16 ± 0.071 | M 1.1 ± 0.029 | Q 0.976 ± 0.13 | E 0.555 ± 0.085 | K 1.2 ± 0.063 | S 0.614 ± 0.22 | F 0.638 ± 0.14 | H 0.91 ± 0.075 | V 1.38 ± 0.26 | N -0.335 ± 0.22 | W 1.1 ± 0.065 | Y 1.17 ± 0.27 | G 1.03 ± 0.24 | R 0.839 ± 0.35 | A 0.929 ± 0.3 | D 1.05 ± 0.057 | T 1.27 ± 0.22 | I 1.43 ± 0.19 | L 1.31 ± 0.25
A281: K 1.67 ± 0.12 | L 1.31 ± 0.25 | F 1.63 ± 0.22 | R 1.15 ± 0.39 | P 0.84 ± 0.2 | W 1.53 ± 0.049 | V 0.872 ± 0.29 | Y 1.32 ± 0.046 | S 0.99 ± 0.19 | C 0.996 ± 0.17 | Q 1.02 ± 0.46 | H 1.11 ± 0.085 | T 0.867 ± 0.14 | I 0.957 ± 0.46 | D 0.674 ± 0.04 | G 1.5 ± 0.098 | M 0.425 ± 0.077 | E -0.175 ± 0.053 | N 0.445 ± 0.21
P286: W 1.61 ± 0.054 | C 0.46 ± 0.43 | Y 1.65 ± 1 | R 1.17 ± 0.44 | G 1.05 ± 0.13 | T 1.07 ± 0.25 | E 1 ± 0.042 | I 0.986 ± 0.4 | L 1.14 ± 0.32 | M 1.36 ± 0.059 | N 0.454 ± 0.077 | D 0.448 ± 0.17 | Q 1.07 ± 0.083 | K 0.495 ± 0.61 | F 1.54 ± 0.18 | A 0.97 ± 0.35 | H 0.652 ± 0.12 | S 0.834 ± 0.37 | V 1.26 ± 0.079
S278: C 0.735 ± 0.17 | V 1.09 ± 0.31 | F 1 ± 0.2 | W 1.19 ± 0.12 | T 1.23 ± 0.46 | P 1.12 ± 0.29 | K 1.28 ± 0.24 | D 0.859 ± 0.21 | I 1.04 ± 0.18 | N 0.723 ± 0.3 | L 1.01 ± 0.28 | A 0.851 ± 0.21 | H 1.22 ± 0.16 | G 1.34 ± 0.16 | Y 1.29 ± 0.17 | M 1.35 ± 0.14 | Q 1.16 ± 0.17 | E 0.763 ± 0.2 | R 0.819 ± 0.16
S287: C 1.07 ± 0.13 | E 0.811 ± 0.19 | A 1.17 ± 0.32 | G 1.22 ± 0.13 | F 0.994 ± 0.031 | D 0.579 ± 0.25
R272: D 1.21 ± 0.23 | T 0.941 ± 0.33 | L 1.01 ± 0.29 | M 1.31 ± 0.061 | W 0.893 ± 0.044 | V 0.896 ± 0.33 | K 0.494 ± 0.23 | N 1.37 ± 0.067 | I 1.08 ± 0.23 | S 1.02 ± 0.3 | P 0.879 ± 0.33 | Q 0.947 ± 0.41 | A 0.71 ± 0.27 | E 1.08 ± 0.17 | C 1.3 ± 0.18 | Y 0.677 ± 0.23 | F 1.09 ± 0.24 | G 0.842 ± 0.29 | H 0.444 ± 0.15
G274: F 0.89 ± 0.068 | T 0.86 ± 0.15 | S 1.09 ± 0.32 | H 1.4 ± 0.14 | L 1 ± 0.27 | N 1 ± 0.34 | W 1.46 ± 0.045 | V 1.05 ± 0.16 | I 0.929 ± 0.32 | C 0.942 ± 0.21 | A 0.889 ± 0.18 | R 0.983 ± 0.14 | K 1.24 ± 0.055 | E 0.611 ± 0.097 | Y 1.07 ± 0.028 | Q 0.131 ± 0.15 | P 0.734 ± 0.42 | D 1.14 ± 0.15
G277: A 1.46 ± 0.16 | Y 0.553 ± 0.1 | E 1.3 ± 0.2 | H 0.919 ± 0.44 | C 1.38 ± 0.068 | R 1.21 ± 0.25 | K 1.22 ± 0.26 | P 0.526 ± 0.28 | T 0.758 ± 0.045 | L 0.959 ± 0.17 | N 1.2 ± 0.24 | S 0.459 ± 0.24 | F 1.23 ± 0.49 | V 1.1 ± 0.19 | I 1.24 ± 0.12 | M 1.01 ± 0.086 | Q 0.825 ± 0.064
P280: S 1.1 ± 0.41 | K 0.978 ± 0.09 | Q 1.14 ± 0.094 | I 0.993 ± 0.099 | R 1.01 ± 0.22 | W -0.397 ± 0.28 | G 1.17 ± 0.45 | H 1.04 ± 0.14 | N 1.37 ± 0.042 | C 0.574 ± 0.13 | V 1.2 ± 0.15 | A 0.981 ± 0.21 | D 0.642 ± 0.23 | L 1.28 ± 0.27 | T 1.04 ± 0.29 | F 1.58 ± 0.24 | Y 1.42 ± 0.076 | M 1.23 ± 0.074 | E 1.13 ± 0.23
A271: V 1.09 ± 0.14 | F 0.885 ± 0.31 | W 1.6 ± 0.061 | T 0.847 ± 0.23 | H 1.66 ± 0.047 | G 0.722 ± 0.38 | Q 0.693 ± 0.16 | I 1.1 ± 0.18 | D 1.22 ± 0.21 | E 1.1 ± 0.12 | Y 0.83 ± 0.071 | K 1.1 ± 0.14 | L 1.24 ± 0.29 | R 0.714 ± 0.37 | M 1.38 ± 0.051 | N 1.11 ± 0.13 | S 1.09 ± 0.17 | C 1 ± 0.56 | P 1.02 ± 0.28

Source: the supplement of paper PMC12667976
